Data reported in PMC10630445, “RNA recognition by Npl3p reveals U2 snRNA-binding compatible with a chaperone role during splicing”.
Residue numbers refer to the chain shown, from its start. Numbers in names are those of the source.

Experiments:
Npl3 RRM1/2 [1] = biological target: T1, Npl3 RRM1/2 (Saccharomyces cerevisiae, UniProt Q01560 114-282); assay: ITC; ITC at 40 °C in NMR buffer: RRM1 and RRM1/2 25 mM Na2HPO4, 25 mM NaH2PO4 pH 6.9; RRM2 100 mM NaCl, 20 mM NaH2PO4 pH 5.5; NMR titrations at 40 °C (U2 SL I 1D spectra at 303 K); conditions: protein: recombinant; (pET28a, nickel purification)
T1 sequence: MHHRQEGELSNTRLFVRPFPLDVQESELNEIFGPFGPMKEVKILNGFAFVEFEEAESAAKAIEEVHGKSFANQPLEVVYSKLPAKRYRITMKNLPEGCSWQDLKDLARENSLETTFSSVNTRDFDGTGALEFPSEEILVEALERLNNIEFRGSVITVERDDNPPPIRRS

Npl3 RRM1/2 Q214A+K217A = biological target: T2, Npl3 RRM1/2 Q214A+K217A (Saccharomyces cerevisiae, UniProt Q01560 114-282, Q214A;K217A); assay: as above; conditions: protein: recombinant; (pET28a)
T2 sequence: T1 sequence with Q101A, K104A

Npl3 RRM1/2 F229A = biological target: T3, Npl3 RRM1/2 F229A (Saccharomyces cerevisiae, UniProt Q01560 114-282, F229A); assay: as above; conditions: protein: recombinant; (pET28a)
T3 sequence: T1 sequence with F116A

Npl3 RRM1/2 R126A = biological target: T4, Npl3 RRM1/2 R126A (Saccharomyces cerevisiae, UniProt Q01560 114-282, R126A); assay: as above; conditions: protein: recombinant; (pET28a)
T4 sequence: T1 sequence with R13A

Npl3 RRM1/2 K217A = biological target: T5, Npl3 RRM1/2 K217A (Saccharomyces cerevisiae, UniProt Q01560 114-282, K217A); assay: as above; conditions: protein: recombinant; (pET28a)
T5 sequence: T1 sequence with K104A

Npl3 RRM1/2 Q214A = biological target: T6, Npl3 RRM1/2 Q214A (Saccharomyces cerevisiae, UniProt Q01560 114-282, Q214A); assay: as above; conditions: protein: recombinant; (pET28a)
T6 sequence: T1 sequence with Q101A

[2] = biological target: T7, Npl3 RRM1/2 linker 3xGGGGS (Saccharomyces cerevisiae, UniProt Q01560 114-194+=GGGGSGGGGSGGGGS+198-282, internal_change); assay: as above; conditions: protein: recombinant; (pET28a)
T7 sequence: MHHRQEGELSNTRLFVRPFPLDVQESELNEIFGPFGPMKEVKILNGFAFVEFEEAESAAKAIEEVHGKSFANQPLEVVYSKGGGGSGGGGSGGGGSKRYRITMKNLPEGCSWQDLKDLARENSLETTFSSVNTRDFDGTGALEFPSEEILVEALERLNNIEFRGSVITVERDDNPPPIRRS

Npl3 RRM1/2 linker GGG = biological target: T8, Npl3 RRM1/2 linker GGG (Saccharomyces cerevisiae, UniProt Q01560 114-282, L195G;P196G;A197G); assay: as above; conditions: protein: recombinant; (pET28a)
T8 sequence: T1 sequence with L82G, P83G, A84G

Npl3 RRM1/2 R130A = biological target: T9, Npl3 RRM1/2 R130A (Saccharomyces cerevisiae, UniProt Q01560 114-282, R130A); assay: as above; conditions: protein: recombinant; (pET28a)
T9 sequence: T1 sequence with R17A

Npl3 RRM1/2 F128A = biological target: T10, Npl3 RRM1/2 F128A (Saccharomyces cerevisiae, UniProt Q01560 114-282, F128A); assay: as above; conditions: protein: recombinant; (pET28a)
T10 sequence: T1 sequence with F15A

Npl3 RRM1/2 [3] = biological target: T1, Npl3 RRM1/2; assay: NMR titration; UV melting; protein destabilizes the stem; Tm decreased; ITC at 40 °C in NMR buffer: RRM1 and RRM1/2 25 mM Na2HPO4, 25 mM NaH2PO4 pH 6.9; RRM2 100 mM NaCl, 20 mM NaH2PO4 pH 5.5; NMR titrations at 40 °C (U2 SL I 1D spectra at 303 K); conditions: protein: recombinant; (pET28a, nickel purification); hairpin
Npl3 RRM2 = biological target: T11, Npl3 RRM2 (Saccharomyces cerevisiae, UniProt Q01560 193-282); assay: ITC; ITC at 40 °C in NMR buffer: RRM1 and RRM1/2 25 mM Na2HPO4, 25 mM NaH2PO4 pH 6.9; RRM2 100 mM NaCl, 20 mM NaH2PO4 pH 5.5; NMR titrations at 40 °C (U2 SL I 1D spectra at 303 K); conditions: protein: recombinant; (pET28a, nickel purification)
T11 sequence: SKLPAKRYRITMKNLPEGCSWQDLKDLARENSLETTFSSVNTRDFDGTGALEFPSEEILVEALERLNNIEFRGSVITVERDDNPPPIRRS

Npl3 RRM1 [4] = biological target: T12, Npl3 RRM1 (Saccharomyces cerevisiae, UniProt Q01560 114-201); assay: as above; conditions: protein: recombinant; (pET28a, nickel purification)
T12 sequence: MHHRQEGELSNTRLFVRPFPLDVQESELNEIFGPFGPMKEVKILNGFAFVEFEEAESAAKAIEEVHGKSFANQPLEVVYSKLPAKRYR

Npl3 RRM1 [5] = biological target: T12, Npl3 RRM1; assay: NMR titration; ITC at 40 °C in NMR buffer: RRM1 and RRM1/2 25 mM Na2HPO4, 25 mM NaH2PO4 pH 6.9; RRM2 100 mM NaCl, 20 mM NaH2PO4 pH 5.5; NMR titrations at 40 °C (U2 SL I 1D spectra at 303 K); conditions: protein: recombinant; (pET28a, nickel purification)

AUGGAGUCCAA (ssRNA) [inverted motif RNA] showed a Kd (Npl3 RRM1/2 [1]) of 1.2 µM.

For AUCCAGUGGAA (ssRNA) [split-iCRAC consensus RNA], the Kd (Npl3 RRM1/2 Q214A+K217A) was 15.3 µM, the Kd (Npl3 RRM1/2 F229A) was 2.3 µM and the Kd (Npl3 RRM1/2 R126A) was 10.7 µM. It also gave a Kd (Npl3 RRM1/2 K217A) of 7.5 µM, a Kd (Npl3 RRM1/2 Q214A) of 1.7 µM and a Kd [2] of 6.8 µM. The Kd (Npl3 RRM1/2 linker GGG) was 3.8 µM, the Kd (Npl3 RRM1/2 R130A) was 0.9 µM and the Kd (Npl3 RRM1/2 [1]) was 0.5 µM. The Kd (Npl3 RRM1/2 F128A) was 12.8 µM.

GAGCGAAUCUCUUUGCCUUUUGGCUUAGAUC (structured_RNA) [U2 snRNA stem-loop I]: binds (Npl3 RRM1/2 [3]).

AUCCAAUGGAA (ssRNA) [G6A RNA] gave a Kd (Npl3 RRM1/2 [1]) of 2.2 µM.

With AUCCAGUGAAA (ssRNA) [G9A RNA] the Kd (Npl3 RRM1/2 [1]) was 2.5 µM.

In the case of AUCUAGUGGAA (ssRNA) [C4U RNA], the Kd (Npl3 RRM1/2 [1]) is reported as 1.6 µM.

AGUGGAC (ssRNA) [RRM2 site RNA] was tested, and the Kd (Npl3 RRM2) was 2.2 µM.

Binder AUCCAA (ssRNA) [RRM1 site RNA] has a Kd (Npl3 RRM1 [4]) of ~16.2 µM.

Work on AUCCAGUAGAA (ssRNA) [G8A RNA] yielded a Kd (Npl3 RRM1/2 [1]) of 1.9 µM.

AUUCAGUGGAA (ssRNA) [C3U RNA] gave a Kd (Npl3 RRM1/2 [1]) of 1.8 µM.

UUUUUUUU (ssRNA) [polyU 8mer RNA]: no binding (Npl3 RRM1 [5]).
